In patent US20210017275A1 (Alector, published 2021):
Changes are numbered by the printed parent chain. Each block holds one molecule with its values, some of them ahead of it.

Columns and labels:
[1] = target: T1, Human Siglec 5, Fc chimera (R&D Systems) (human, UniProt O15389 17-434, limits assumed); assay: RBC adhesion to plate-bound Siglec-5-Fc, 1.0 ug/ml isotype control, percent of binding without antibody
T1 construct: Bought or recombinant Fc fusion; also called recombinant Siglec-5-Fc; not shown: Fc part
T1 sequence: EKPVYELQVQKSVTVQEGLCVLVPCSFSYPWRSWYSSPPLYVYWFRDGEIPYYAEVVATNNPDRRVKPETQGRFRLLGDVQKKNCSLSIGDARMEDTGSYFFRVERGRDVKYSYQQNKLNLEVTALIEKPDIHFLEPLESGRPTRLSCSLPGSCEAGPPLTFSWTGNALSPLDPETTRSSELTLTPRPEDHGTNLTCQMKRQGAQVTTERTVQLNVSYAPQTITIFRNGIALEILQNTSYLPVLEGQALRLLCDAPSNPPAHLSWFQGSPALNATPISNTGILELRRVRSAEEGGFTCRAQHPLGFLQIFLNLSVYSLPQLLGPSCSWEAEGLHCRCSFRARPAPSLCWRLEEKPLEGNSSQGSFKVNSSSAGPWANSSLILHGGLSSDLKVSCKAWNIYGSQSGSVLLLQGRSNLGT

[2] = target: T2, human Siglec-5 expressed on human primary cells (human, UniProt O15389 17-551); assay: flow cytometry, human primary monocytes, 10 ug/ml mAb
T2 construct: Endogenous receptor on human primary monocytes, dendritic cells, macrophages and neutrophils; also called CD170
T2 sequence: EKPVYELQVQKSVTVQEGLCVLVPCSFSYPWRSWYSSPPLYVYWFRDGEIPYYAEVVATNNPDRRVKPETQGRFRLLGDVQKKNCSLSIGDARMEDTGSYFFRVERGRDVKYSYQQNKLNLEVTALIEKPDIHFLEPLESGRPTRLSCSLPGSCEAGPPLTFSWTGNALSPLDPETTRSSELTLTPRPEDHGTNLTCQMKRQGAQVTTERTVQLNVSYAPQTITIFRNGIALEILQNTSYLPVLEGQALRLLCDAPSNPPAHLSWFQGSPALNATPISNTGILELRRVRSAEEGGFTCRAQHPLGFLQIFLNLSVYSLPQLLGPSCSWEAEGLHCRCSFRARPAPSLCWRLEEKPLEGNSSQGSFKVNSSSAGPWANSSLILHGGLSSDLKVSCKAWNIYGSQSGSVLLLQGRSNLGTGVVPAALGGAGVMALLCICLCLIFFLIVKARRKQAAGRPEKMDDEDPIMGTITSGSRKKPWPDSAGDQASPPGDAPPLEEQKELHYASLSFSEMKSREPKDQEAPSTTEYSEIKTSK
Protocol: (§1) Initial characterization of Siglec-5 antibodies involved determining their ability to bind Siglec-5 expressed on human primary monocytes, human primary macrophages, human primary dendritic cells, and human primary neutrophils. Cells were harvested, plated at 10⁶1m1 in a 96 well plate, and incubated in 100 μl PBS containing 2% FBS, 2 mM EDTA and 10 μg/ml Mab and Fc blocking reagent for 1 hour in ice. […] Cells were washed twice in cold PBS and analyze by flow cytometry on a BD FACS Canto. Data analysis and calculation of MFI values was performed with FlowJo (TreeStar) software version 10.0.7.
(§2) Binding is compared to an isotype control.

[3] = target: T2, human Siglec-5 expressed on human …; assay: flow cytometry, human primary macrophages, 10 ug/ml mAb
Protocol: as §1, §2

[4] = target: T2, human Siglec-5 expressed on human …; assay: flow cytometry, human primary neutrophils, 10 ug/ml mAb
Protocol: as §1, §2

[5] = target: T2, human Siglec-5 expressed on human …; assay: flow cytometry, human primary dendritic cells, 10 ug/ml mAb
Protocol: as §1, §2

[6] = target: T1, Human Siglec 5, Fc chimera (R&D Systems); assay: RBC adhesion to plate-bound Siglec-5-Fc, 0.3 ug/ml mAb, percent of binding without antibody
Protocol: (§3) Siglec-5 antibodies (0.3 μg/ml or 1.0 μg/ml) were bound for one hour at RT with gentle rocking. After removal of unbound antibody, red blood cells were added to each well at a concentration of 3.0 ×10⁶ cells per ml and incubated at RT for one hour. Unbound RBCs were then carefully washed off 3X with PBS, and water was added to each well for hypotonic lysis of bound RBCs. The plate was transferred to -80° C. for 10 minutes, followed by 37° C. for 15 minutes. Bound RBCs were detected by peroxidase activity, followed by 2N sulfuric acid to stop the reaction.

[7] = target: T1, Human Siglec 5, Fc chimera (R&D Systems); assay: RBC adhesion to plate-bound Siglec-5-Fc, 1.0 ug/ml mAb, percent of binding without antibody
Protocol: as §3

[8] = target: T3, Histidine-tagged human Siglec-5 (NovoProtein) (human, UniProt O15389 17-434, limits assumed); assay: SPR (BiaCore T200, 25 C), mAb captured on anti-mouse IgG, 15 nM His-tagged Siglec-5, single-concentration 1:1 fit
T3 construct: Bought protein; also called Siglec-5-his tagged protein; not shown: histidine tag
T3 sequence: T1 sequence

- Percent RBC Binding to Siglec-5 [1]: 94.4%
Molecule: mouse IgG2b isotype control antibody

- Percent RBC Binding to Siglec-5 [1]: 94.5%
Molecule: mouse IgG2a isotype control antibody

- % Positive [2]: 97.6%
- MFI [2]: 382
- % Positive [3]: 94%
- MFI [3]: 560
- % Positive [4]: 99.2%
- MFI [4]: 411
- % Positive [5]: 96.1%
- MFI [5]: 660
- Percent RBC Binding to Siglec-5 [6]: 29.2%
- Percent RBC Binding to Siglec-5 [7]: 5.79%
- Kd [8]: 0.069 nM
B1: anti-Siglec-5 monoclonal antibody 9B1 (antibody, IgG1, V domains shown)
VH: QVQLQQSGAELVKPGASVKLSCKASGYTFTEYTIHWVKQRSGQGLEWIGWFYPGSGSIKYNEKFKDKATLTADKSSSTVYMELSRLTSEDSAVYFCARQEEGGIGFDYWGQGTTLTVSS
VL: DVLMTQTPLSLLVSLGDQASISCRSSQSIVHSNGNTYLEWYLQKPGQSPKLLIYKVSIRFSGVPDRFSGSGSGTDFTLKISRVEAEDLGVYYCFQGSHVPWTFGGGTKLEIK

- % Positive [2]: 95.7%
- MFI [2]: 386
- % Positive [3]: 80.6%
- MFI [3]: 451
- % Positive [4]: 99.7%
- MFI [4]: 500
- % Positive [5]: 86.9%
- MFI [5]: 402
- Percent RBC Binding to Siglec-5 [6]: 25.4%
- Percent RBC Binding to Siglec-5 [7]: 4.76%
- Kd [8]: 0.166 nM
B2: anti-Siglec-5 monoclonal antibody 11C6 (antibody, IgG1, V domains shown)
VH: B1 VH with D73V, L83F, E100D, E101Y, G102D, I104L, D107A, T114L, L115V, S119A
VL: B1 VL with L12P, S28T, I58N
notes: also called 1106

- % Positive [2]: 94.8%
- MFI [2]: 377
- % Positive [3]: 92%
- MFI [3]: 490
- % Positive [4]: 96%
- MFI [4]: 320
- % Positive [5]: 94.9%
- MFI [5]: 512
- Percent RBC Binding to Siglec-5 [6]: 24.2%
- Percent RBC Binding to Siglec-5 [7]: 5.36%
- Kd [8]: 0.043 nM
B3: anti-Siglec-5 monoclonal antibody 8C3 (antibody, IgG1, V domains shown)
VH: QVQLQQSGGGLVKPGTSVKLSCKASGYIFTEYIIHWVKQRSGQGLEWIGWFYPGIISIKYNEKFKDKATLTADKSSSTVYMELSRLTSEDSAVYFCAGHEGYDGAMDYWGQGTSVTVSS
VL: B1 VL with L12P, S25C, K55R, I58N

- % Positive [2]: 93.5%
- MFI [2]: 391
- % Positive [3]: 84.1%
- MFI [3]: 445
- % Positive [4]: 94.6%
- MFI [4]: 261
- % Positive [5]: 90.3%
- MFI [5]: 467
- Percent RBC Binding to Siglec-5 [6]: 47.4%
- Percent RBC Binding to Siglec-5 [7]: 6.86%
- Kd [8]: 0.112 nM
B4: anti-Siglec-5 monoclonal antibody 7A5 (antibody, IgG1, V domains shown)
VH: EIQLQQSGPELVKPGASVKVSCKASGYSFTDYNMYWVKQSHGKSLEWIGYIDPYNGGTTYNQKFKGKATLTVDKSSSTAFMHLNSLTSEDSAVFYCAFYYGYYGVPYWGQGTLVTVSA
VL: DIVMIQSQKFMSTSVGDRVSVTCKASQNVDTNVAWYQQKPGQSPKALIYSASYRYSGVPDRFTGSGSGTDFTLTISNVQSEDLAEYFCQQYNSFPLTFGSGTKLEIK

- % Positive [2]: 96.1%
- MFI [2]: 404
- % Positive [3]: 93.5%
- MFI [3]: 537
- % Positive [4]: 98.1%
- MFI [4]: 329
- % Positive [5]: 94%
- MFI [5]: 515
- Percent RBC Binding to Siglec-5 [6]: 36.5%
- Percent RBC Binding to Siglec-5 [7]: 9.94%
- Kd [8]: 0.184 nM
B5: anti-Siglec-5 monoclonal antibody 5H2 (antibody, IgG1, V domains shown)
VH: B4 VH with I2V, T59S, H82L, F94Y, F98L, G101D, Y103D, V105I
VL: B4 VL with I5T, D30G, Q37R, S56N, F94Y, L96Y, S100G

- % Positive [2]: 98%
- MFI [2]: 398
- % Positive [3]: 83%
- MFI [3]: 457
- % Positive [4]: 89%
- MFI [4]: 219
- % Positive [5]: 85.7%
- MFI [5]: 349
- Percent RBC Binding to Siglec-5 [6]: 19%
- Percent RBC Binding to Siglec-5 [7]: 8%
- Kd [8]: 0.229 nM
B6: anti-Siglec-5 monoclonal antibody 8A1 (antibody, IgG1, V domains shown)
VH: EIQLQQSGPELVKPGASVKVSCKASDYAFTSYNIYWVKQSHGKSLEWIGYIDPYNGGTSYNQTFKGKATLTVDKSSSTAYMHLNSLTSEDSAVYYCAMKVGYEAMDYWGQGTSVTVSS
VL: B4 VL with I5T, D30G, N32Y, T74N, Y91F, F94Y, L96Y, S100G

- % Positive [2]: 98.2%
- MFI [2]: 421
- % Positive [3]: 94.4%
- MFI [3]: 581
- % Positive [4]: 94.4%
- MFI [4]: 253
- % Positive [5]: 93.6%
- MFI [5]: 607
- Percent RBC Binding to Siglec-5 [6]: 27.5%
- Percent RBC Binding to Siglec-5 [7]: 5.21%
- Kd [8]: 0.101 nM
B7: anti-Siglec-5 monoclonal antibody 10B6 (antibody, IgG1, V domains shown)
VH: B4 VH with W47C, I48F, T58P, T59Y, F94Y
VL: B4 VL with I5T, Q27H, D30G, N32S, A46S, F94Y

- % Positive [2]: 95.5%
- MFI [2]: 376
- % Positive [3]: 84.1%
- MFI [3]: 444
- % Positive [4]: 97.8%
- MFI [4]: 367
- % Positive [5]: 86%
- MFI [5]: 377
- Percent RBC Binding to Siglec-5 [6]: 38.5%
- Percent RBC Binding to Siglec-5 [7]: 6.17%
- Kd [8]: 0.569 nM
B8: anti-Siglec-5 monoclonal antibody 11H3 (antibody, IgG1, V domains shown)
VH: B6 VH with E1Q, I2V
VL: B4 VL with V3Q, I5T, D30G, T74N, Y91F, F94Y, L96Y, S100G

- % Positive [2]: 95.3%
- MFI [2]: 405
- % Positive [3]: 96.2%
- MFI [3]: 562
- % Positive [4]: 98.9%
- MFI [4]: 371
- % Positive [5]: 95.6%
- MFI [5]: 589
- Percent RBC Binding to Siglec-5 [6]: 48.7%
- Percent RBC Binding to Siglec-5 [7]: 6.22%
- Kd [8]: 0.104 nM
B9: anti-Siglec-5 monoclonal antibody 10F9 (antibody, IgG1, V domains shown)
VH: EIQLQQSGPELVKPGASVKVSCKASGYSFTGYNMYWVKQSHGKSFEWIGYIDPYTGGTSYNQRFKGKATLTVDKSSSTAFMHLNSLTSEDSAIYYCALFYDYDGFPYWGQGTLVTVSA
VL: B4 VL with I5T, F94Y, L96Y, S100G

- % Positive [2]: 97.3%
- MFI [2]: 368
- % Positive [3]: 91.8%
- MFI [3]: 569
- % Positive [4]: 87.4%
- MFI [4]: 207
- % Positive [5]: 90.7%
- MFI [5]: 459
- Percent RBC Binding to Siglec-5 [6]: 31.8%
- Percent RBC Binding to Siglec-5 [7]: 6.73%
- Kd [8]: 0.081 nM
B10: anti-Siglec-5 monoclonal antibody 2G5 (antibody, IgG1, V domains shown)
VH: EIQLQQSGPELVKPGASVKVSCKASGYSFTDYNMYWVKQSHGKSLEWIGYIDPYNGNTTYNQRFKGKATLTVDKSSSTAFMHLNSLTSEDAAVYYCATFYGFDGFAYWGQGSLVAVSA
VL: QAVVTQESALTTSPGETVTLTCRSSTGAVTTSNYANWVQEKPDHLFTGLIGTTNNRAPGVPARFSGSLIGDKAALTITGAQTEDEAIYFCALWYSNHLVFGGGTKLTVLG

- % Positive [2]: 93.2%
- MFI [2]: 368
- % Positive [3]: 87.8%
- MFI [3]: 471
- % Positive [4]: 98.6%
- MFI [4]: 332
- % Positive [5]: 93.9%
- MFI [5]: 591
- Percent RBC Binding to Siglec-5 [6]: 47.5%
- Percent RBC Binding to Siglec-5 [7]: 5.59%
- Kd [8]: 0.408 nM
B11: anti-Siglec-5 monoclonal antibody 9A5 (antibody, IgG1, V domains shown)
VH: QVQLQQSGPELVEPGASVKVSCKASGYAFTSYNMYWVKQSHGKSLEWIGYIDPYNGGTYYDQKFKGRATLTVDKSSSTAHMHLNSLTSEDSAVYYCVFFYEYDGFPYWGQGTLVTVSA
VL: DIVLTQSPTLMSASPGEKVTMTCSASSSVSYMYWYQQKPRSSPKPLIYLTSNLASGVPARFSGSGSGTSYSLTISSMEAEDAATYYCQQWSSNPLTFGAGTKLELK
